Legend:
Assay in all cases: ITC
[1] = molecular target: human activated factor IX (Homo sapiens) (UniProt P00740)
[2] = molecular target: human factor IX (zymogen) (Homo sapiens) (UniProt P00740)
[3] = molecular target: human activated factor X (Homo sapiens) (UniProt P00742)
[4] = molecular target: human factor X (zymogen) (Homo sapiens) (UniProt P00742)
human factor X (zymogen) (Homo sapiens), sequence (P00742 whole entry, looked up): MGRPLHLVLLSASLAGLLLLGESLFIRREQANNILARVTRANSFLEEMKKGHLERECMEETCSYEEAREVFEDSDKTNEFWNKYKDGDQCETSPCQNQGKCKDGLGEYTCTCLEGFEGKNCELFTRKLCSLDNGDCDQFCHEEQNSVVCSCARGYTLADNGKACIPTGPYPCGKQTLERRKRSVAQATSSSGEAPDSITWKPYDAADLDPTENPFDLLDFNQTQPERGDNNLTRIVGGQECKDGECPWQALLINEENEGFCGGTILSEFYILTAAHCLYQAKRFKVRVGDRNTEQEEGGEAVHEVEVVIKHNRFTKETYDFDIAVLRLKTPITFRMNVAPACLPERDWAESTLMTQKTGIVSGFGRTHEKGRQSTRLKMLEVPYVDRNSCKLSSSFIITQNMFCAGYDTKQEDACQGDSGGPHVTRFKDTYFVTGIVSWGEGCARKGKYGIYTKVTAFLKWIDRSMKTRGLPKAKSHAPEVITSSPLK

human activated factor X (Homo sapiens), sequence (P00742 235-488, chain 1 of 2): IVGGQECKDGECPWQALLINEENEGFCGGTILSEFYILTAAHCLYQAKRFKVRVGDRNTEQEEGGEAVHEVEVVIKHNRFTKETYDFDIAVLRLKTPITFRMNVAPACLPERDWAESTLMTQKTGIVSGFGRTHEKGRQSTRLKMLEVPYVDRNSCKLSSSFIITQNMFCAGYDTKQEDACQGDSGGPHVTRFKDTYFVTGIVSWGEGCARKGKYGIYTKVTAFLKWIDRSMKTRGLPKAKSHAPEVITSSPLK
human activated factor X (Homo sapiens), sequence (P00742 235-488, chain 2 of 2): as the sequence (P00742 235-488, chain 1 of 2) above
human activated factor IX (Homo sapiens), sequence (P00740 47-191, chain 1 of 2): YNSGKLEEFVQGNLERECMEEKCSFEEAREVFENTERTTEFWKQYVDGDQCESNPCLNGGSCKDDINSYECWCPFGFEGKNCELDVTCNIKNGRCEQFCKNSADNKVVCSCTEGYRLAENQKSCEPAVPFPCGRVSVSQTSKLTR
human activated factor IX (Homo sapiens), sequence (P00740 227-461, chain 2 of 2): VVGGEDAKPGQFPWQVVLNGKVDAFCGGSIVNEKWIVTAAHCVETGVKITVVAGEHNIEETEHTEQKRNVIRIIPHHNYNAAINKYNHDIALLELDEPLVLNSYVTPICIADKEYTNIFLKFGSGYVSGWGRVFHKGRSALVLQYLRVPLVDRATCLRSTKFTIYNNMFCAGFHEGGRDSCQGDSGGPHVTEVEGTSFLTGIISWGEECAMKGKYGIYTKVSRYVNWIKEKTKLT
human factor IX (zymogen) (Homo sapiens), sequence (P00740 47-461): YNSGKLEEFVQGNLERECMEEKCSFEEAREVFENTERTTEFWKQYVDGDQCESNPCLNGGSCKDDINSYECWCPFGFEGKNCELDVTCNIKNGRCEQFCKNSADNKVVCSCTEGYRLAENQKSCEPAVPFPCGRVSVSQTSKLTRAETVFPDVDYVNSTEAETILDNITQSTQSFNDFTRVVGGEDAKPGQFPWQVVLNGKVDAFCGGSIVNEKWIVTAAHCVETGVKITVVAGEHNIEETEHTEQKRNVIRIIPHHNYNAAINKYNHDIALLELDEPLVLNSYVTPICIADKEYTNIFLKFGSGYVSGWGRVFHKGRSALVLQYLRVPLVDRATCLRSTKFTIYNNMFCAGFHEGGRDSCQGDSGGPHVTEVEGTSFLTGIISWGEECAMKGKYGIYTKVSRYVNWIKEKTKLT

- Kd [1]: 2300 nM
- Kd [2]: 4700 nM
- Kd [3]: 300 nM
- Kd [4]: 1500 nM
Substance: Mim8 (bispecific antibody)
